One assay addresses T1, hOGG1 F319A (human, UniProt O15527 1-345, F319A).
T1 construct: human 8-oxoguanine glycosylase 1 (hOGG1) with F319A, from the pGEX-hOGG1 vector; Mutant defective for 8-oxoG recognition; also called hOGG1 mutant (F319A)
Briefly: pull-down; biotinylated dsDNA with an 8oxoG lesion on Dynabeads M-280 Streptavidin; 2 μg each of hSSB1 and hOGG1 F319A pre-incubated in buffer K with 75 mM KCl at 4°C, then 2 h with beads at 4°C, wash with 100 mM KCl; SDS-PAGE, Coomassie blue. As to conditions: both partners purified.

The next assay deals with GST-hOGG1 wild type (human, UniProt O15527 1-345). Briefly: cell-based or functional assay.
Sequence of GST-hOGG1 wild type (O15527 whole entry): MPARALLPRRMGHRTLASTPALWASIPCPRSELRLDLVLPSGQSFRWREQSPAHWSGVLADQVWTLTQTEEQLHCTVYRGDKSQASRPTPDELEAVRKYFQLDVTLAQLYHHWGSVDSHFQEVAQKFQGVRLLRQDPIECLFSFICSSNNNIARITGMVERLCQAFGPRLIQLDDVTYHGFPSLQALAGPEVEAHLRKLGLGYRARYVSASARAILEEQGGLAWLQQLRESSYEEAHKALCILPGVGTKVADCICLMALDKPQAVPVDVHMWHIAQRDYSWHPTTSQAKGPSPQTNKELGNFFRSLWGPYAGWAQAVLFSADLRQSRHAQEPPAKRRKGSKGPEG

T1 sequence (O15527 whole entry F319A): as the sequence (O15527 whole entry) above, with F319A counted along it

B1: recombinant hSSB1 full length, N-terminal (His)6-tag (natural protein, human, UniProt Q9BQ15 1-211, looked up)
chain: MTTETFVKDIKPGLKNLNLIFIVLETGRVTKTKDGHEVRTCKVADKTGSINISVWDDVGNLIQPGDIIRLTKGYASVFKGCLTLYTGRGGDLQKIGEFCMVYSEVPNFSEPNPEYSTQQAPNKAVQNDSNPSASQPTTGPSAASPASENQNGNGLSAPPGPGGGPHPPHTPSHPPSTRITRSQPNHTPAGPPGPSSNPVSNGKETRRSSKR
notes: also called hSSB1 Full length (FL); purified recombinant hSSB1; source: E. coli T7 shuffle strain, purified (Superdex 200)
As to B1, in the assay with hOGG1 F319A, the binding result is “binds”. Further, the “8-oxoG incision activity of 20 nM recombinant hOGG1 on a 22 bp dsDNA with 8-oxoG opposite cytosine, with increasing concentrations of hSSB1 (37°C, 30 min)” value with GST-hOGG1 wild type came out at 12 fold.
